For this assay, the target named is T1, recombinant human PD-L1 expressed with a C-terminal myc-myc-hexahistidine tag (hPD-L1-MMH) (human).
T1 construct: Monomeric PD-L1 reagent; also called hPD-L1-MMH Monomer
Nature of the assay: SPR, captured mAb, 25 C. The protocol: Binding association and dissociation rate constants (kₐ and kd, respectively), equilibrium dissociation constants and dissociation half-lives (KD and t_{1/2}, respectively) of antigen binding to purified anti-PD-L1 monoclonal antibodies were determined using a real-time surface plasmon resonance biosensor assay on a Biacore 4000 instrument. The Biacore sensor surface was either derivatized with polyclonal rabbit anti-mouse antibody (GE, #BR-1008-38) or with monoclonal mouse anti-human Fc antibody (GE, #BR-1008-39) to capture approximately 200-300 RUs of anti-PD-L1 monoclonal antibodies, expressed with either a mouse Fc or with human Fc, respectively. […] Different concentrations of PD-L1 reagents were injected over the anti-PD-L1 monoclonal antibody captured surface at a flow rate of 30 μL/min. The binding of the PD-L1 reagents to the captured monoclonal antibodies was monitored for 3 to 4 minutes while the dissociation of antibody bound PD-L1 reagents was monitored for 10 minutes in HBST running buffer (0.01 M HEPES pH 7.4, 0.15 M NaCl, 3 mM EDTA, 0.05% v/v Surfactant tween-20). Experiments were performed at either 25° C. or 37° C. Kinetic association (kₐ) and dissociation (kd) rate constants were determined by processing and fitting the data to a 1:1 binding model using Scrubber 2.0c curve fitting software. Binding dissociation equilibrium constants (KD) and dissociative half-lives (t_{1/2}) were then calculated from the kinetic rate constants as: KD (M)=kd/kₐ and t_{1/2} (min)=[In2/(60*kd)].

Where a chain is given by its changes, count along the chain named.

T1 sequence (chain, as listed by the source limits assumed): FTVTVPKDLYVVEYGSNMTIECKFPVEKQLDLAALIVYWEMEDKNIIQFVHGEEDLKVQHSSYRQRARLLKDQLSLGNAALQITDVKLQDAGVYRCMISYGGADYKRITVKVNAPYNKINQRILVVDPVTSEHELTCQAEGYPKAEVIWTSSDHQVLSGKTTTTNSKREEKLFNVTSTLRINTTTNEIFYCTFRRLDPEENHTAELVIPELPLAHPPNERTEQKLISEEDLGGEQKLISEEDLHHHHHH

B1: H1H9345P2 (antibody, human IgG1, V domains shown)
VH: EVQLVESGGGLVQPGGSLRLSCAASGFTISTNYMNWVRQAPGKGLEWVAVIYSSGSTYYIDSVKGRFTISRLTSKNTVYLQMSSLNSEDTAVYYCARGIRGFDIWGQGTMVTVSS
VL: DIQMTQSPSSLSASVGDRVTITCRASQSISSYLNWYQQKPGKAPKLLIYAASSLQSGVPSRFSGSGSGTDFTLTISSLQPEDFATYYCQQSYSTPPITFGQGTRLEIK
Regarding B1, the dissociation constant (Kd) amounted to 165 nM, the koff came to 0.0149 s⁻¹, the kon amounted to 90200 M⁻¹ s⁻¹ and the t1/2 is 0.8 min.

B2: H2aM8314N (antibody, mouse IgG2, V domains shown)
VH: EVQLVESGGGVVRPGGSLRLSCAASGFTFDDYGMTWVRQAPGRGLEWVSGIHWHGKRTGYADSVKGRFTISRDNAKKSLYLQMNSLKGEDTALYHCVRGGMSTGDWFDPWGQGTLVIVSS
VL: DIQMTQSPSSLSASLGDRVTITCRASQSINSYLNWYQQKPGKAPKLLIYVASSLQSGVPSRFSGSGSGTEFTLTISNLQPEDFATYYCQQSYSTPPITFGQGTRLEIK
notes: also called H2M8314N
Turning to B2, the Kd was 0.0558 nM, the koff worked out at 5.17e-05 s⁻¹, the kon is 925000 M⁻¹ s⁻¹ and the t1/2 was 224 min.

B3: H2aM8317N (antibody, mouse IgG2, V domains shown)
VH: EVQLVESGGGLVQPGGSLRLSCAASGFTVGSNYMNWVRQAPGKGLEWVSVIYSGGSTYYADSVKGRFTISRLTSKNTLYLQMSSLRPEDTAVYYCARGIRGLDVWGQGTTVTVSS
VL: B2 VL with L15V, S28T, S31I, K42R, K45R, V50A, E70D, N77S, Q89H
notes: also called H2M8317N
B3: the Kd was found to be 421 nM, the koff turned out to be 0.0395 s⁻¹, the kon amounted to 94000 M⁻¹ s⁻¹ and the t1/2 came to 0.3 min.

B4: H2aM8321N (antibody, mouse IgG2, V domains shown)
VH: EERLVESGGDLVQPGGSLRLSCAASGITVGTNYMNWVRQAPGKGLEWVSVISSGGNTHYADSVKGRFIMSRQTSKNTLYLQMNSLETEDTAVYYCARGIRGLDVWGQGTMVTVSS
VL: B2 VL with L15V, I29M, N30S, K42R, Y49F, V50A, E70D, N77S
notes: also called H2M8321N
For B4, the Kd was 34.9 nM, the koff was found to be 0.00359 s⁻¹, the kon amounted to 103000 M⁻¹ s⁻¹ and the t1/2 is 3.2 min.

B5: H1H9387P2 (antibody, human IgG1, V domains shown)
VH: QVQLVQSGAEVKKPGSSVKVSCKASGGTFNTYVLSWVRQAPGQGLEWMGEIIPILGAANYAQNFQGRVTFTTDESTNTAYMDLSSLRSEDTAVYYCARDRTSGGFDPWGQGTLVTVSS
VL: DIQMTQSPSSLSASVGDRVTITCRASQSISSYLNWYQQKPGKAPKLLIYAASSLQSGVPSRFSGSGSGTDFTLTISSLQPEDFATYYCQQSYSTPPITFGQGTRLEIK
B5: the Kd came out at 22.1 nM, the koff is 0.0582 s⁻¹, the kon was 2.64e+06 M⁻¹ s⁻¹ and the t1/2 is 0.2 min.

B6: H2aM8310N (antibody, mouse IgG2, V domains shown)
VH: QVQLVQSGAEVKKPGASVQVSCKASGYSFTGYYIHWVRQAPGQGLEWMGWINPNSGTKKYAHKFQGRVTMTRDTSIDTAYMILSSLISDDTAVYYCARDEDWNFGSWFDSWGQGTLVTVSS
VL: DIVMTQTPLSSPVTLGQPASISCRSSQTLVHGDGNTYLSWIQQRPGQPPRLLIYKVSNQFSGVPDRFSGSGAGTDFTLKISRVEAEDVGLYFCMQATHFPITFGQGTRLEIK
notes: also called H2M8310N
For the molecule B6, the Kd was 3.5 nM, the koff worked out at 0.00031 s⁻¹, the kon was 88600 M⁻¹ s⁻¹ and the t1/2 was determined as 37 min.

B7: H2aM8309N (antibody, mouse IgG2, V domains shown)
VH: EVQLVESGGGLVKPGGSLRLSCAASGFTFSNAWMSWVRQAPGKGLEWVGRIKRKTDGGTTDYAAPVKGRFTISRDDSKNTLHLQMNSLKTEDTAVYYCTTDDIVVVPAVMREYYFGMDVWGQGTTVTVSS
VL: DIQMTQSPSSLSASVGDRVTITCRTSQGIRNDLGWYQQKPGKAPKRLIYAASSLQSGVPSRFSGSGSGTEFTLTISSLQPEDFATYYCLQHNNYPYTFGQGTKLEIK
notes: also called H2M8309N
Consider B7, for which the Kd was 16.3 nM, the koff turned out to be 0.0104 s⁻¹, the kon is 642000 M⁻¹ s⁻¹ and the t1/2 came to 1.1 min.

B8: H1H9329P (antibody, human IgG1, V domains shown)
VH: EVQLVESGGGLVQSGGSLRLSCAASGFTFSSYWMSWVRQAPGKGLEWVANIKQDGSEKYYVDSVKGRFTISRDNAKNSLYLQMNSLRADDTAVYYCARDDIVVVPAPMGYYYYYFGMDVWGQGTTVTVSS
VL: B7 VL with T25A, N93S
With B8, the Kd was 75.8 nM, the koff is 0.134 s⁻¹, the kon worked out at 1.77e+06 M⁻¹ s⁻¹ and the t1/2 stood at 0.1 min.

B9: H1H9382P2 (antibody, human IgG1, V domains shown)
VH: EVQLVESGGGLVQPGGSLRLSCAASGFTVGTNFMNWVRQAPGKGLEWVSAIYSGGTANYADSVKGRFTISRDTSRNTLYLQMNSLRTEDTAVYYCARGGGMDVWGQGTTVTVSS
VL: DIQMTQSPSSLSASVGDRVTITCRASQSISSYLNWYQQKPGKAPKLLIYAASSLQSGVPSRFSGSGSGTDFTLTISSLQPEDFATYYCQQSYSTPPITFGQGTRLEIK
In the case of B9, the Kd was 60.6 nM, the koff worked out at 0.00479 s⁻¹, the kon stood at 79000 M⁻¹ s⁻¹ and the t1/2 stood at 2.4 min.

B10: H1H9336P (antibody, human IgG1, V domains shown)
VH: EVQLVESGGGLVQPGRSLRLSCAASGFTFDDFAMHWVRQAPGKGLEWVSGISWTGGNMDYANSVKGRFTISREDAKNSLYLQMNSLRAADTALYYCVKDIRGIVATGGAFDIWGRGTMVTVSS
VL: DIQMTQSPSSLSASVGDRVTISCRASQTISTYLNWFQQKPGKAPKLLIYVVSSLQSGVPSRFSGSGSGTDFTLTISSLQPEDFATYYCQQSYSTPFTFGPGTKVDIK
For the molecule B10, the Kd worked out at 0.492 nM, the koff turned out to be 0.00039 s⁻¹, the kon is 792000 M⁻¹ s⁻¹ and the t1/2 was determined as 30 min.

B11: H2aM8306N (antibody, mouse IgG2, V domains shown)
VH: EVQLVESGGGLVQPGGSLRLSCAASGFTFSRFWMSWVRQAPGKGLEWVANINQDGTEKYYVDSVKGRFTISRDNAKNSLYLQMNSLRAGDTAVYYCANTYYDFWSGHFDYWGQGTLVTVSS
VL: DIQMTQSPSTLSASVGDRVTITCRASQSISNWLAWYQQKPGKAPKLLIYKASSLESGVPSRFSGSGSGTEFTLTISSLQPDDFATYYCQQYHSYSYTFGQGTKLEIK
notes: also called H2M8306N
Turning to B11, the Kd stood at 69.6 nM, the koff stood at 0.01 s⁻¹, the kon worked out at 144000 M⁻¹ s⁻¹ and the t1/2 stood at 1.2 min.

B12: H1H9354P2 (antibody, human IgG1, V domains shown)
VH: EVQLVESGGGLVQPGGSLRLSCEASGFTVGVNHMNWVRQAPGKGLEWVSVIFSSGRTFYGDYVKGRLTIFRQTSQNTVYLQMNSLRSEDTAIYYCARGIGGLDIWGRGTMVTVSS
VL: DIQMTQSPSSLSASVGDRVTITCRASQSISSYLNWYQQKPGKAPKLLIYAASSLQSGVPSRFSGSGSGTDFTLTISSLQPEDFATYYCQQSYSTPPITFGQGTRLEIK
On to B12, for which the Kd amounted to 8.04 nM, the koff worked out at 0.000383 s⁻¹, the kon is 47600 M⁻¹ s⁻¹ and the t1/2 was determined as 30 min.

B13: H2aM8323N (antibody, mouse IgG2, V domains shown)
VH: QVQLVQSGAEVKMPGSSVRVSCKASGGIFSSSTISWVRQAPGQGLEWMGEIIPVFGTVNYAQKFQDRVIFTADESTTTAYMELSSLKSGDTAVYFCARNWGLGSFYIWGQGTMVTVSS
VL: EIVLTQSPGTLSLSPGERATLSCRASQSFNFNYLAWYQQKPGQAPRLLIYGASSRATGIPDRFSGSGSGTDFTLTINRLEPEDFGVFYCQQYESAPWTFGQGTKVEIK
notes: also called H2M8323N
As to B13, the Kd came to 0.238 nM, the koff came to 0.000223 s⁻¹, the kon came out at 937000 M⁻¹ s⁻¹ and the t1/2 came out at 52 min.

B14: H1H9364P2 (antibody, human IgG1, V domains shown)
VH: EVQLVESGGGLVQPGRSLRLSCAASGFTFDDYALHWVRQAPGKGLEWVSGISWTGGTIDYADSVKGRFTISRDNAKNSLYLQMSSLRTEDTAIYYCTRDIRGNWKYGGWFDPWGQGTLVTVSS
VL: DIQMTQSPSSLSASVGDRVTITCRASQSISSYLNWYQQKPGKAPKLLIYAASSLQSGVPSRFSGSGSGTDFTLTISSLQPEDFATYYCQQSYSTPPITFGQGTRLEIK
For the molecule B14, the Kd is 0.321 nM, the koff amounted to 0.000299 s⁻¹, the kon was 932000 M⁻¹ s⁻¹ and the t1/2 was determined as 39 min.

B15: H2aM8312N (antibody, mouse IgG2, V domains shown)
VH: QVHLVQSGAEVKKPGASVKVSCKASGYTFTGYYIHWVRQAPGHGLEWMGWLNPNTGTTKYIQNFQGRVTMTRDTSSSTAYMELTRLRSDDTAVYYCARDEDWNYGSWFDTWGQGTLVTVSS
VL: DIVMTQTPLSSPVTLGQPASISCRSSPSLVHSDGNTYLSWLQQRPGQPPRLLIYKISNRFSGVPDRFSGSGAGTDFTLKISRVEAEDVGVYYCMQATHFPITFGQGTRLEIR
notes: also called H2M8312N
For B15, the Kd was 9.51 nM, the koff came to 0.000722 s⁻¹, the kon came to 75900 M⁻¹ s⁻¹ and the t1/2 was 16 min.
